Source: PMC11649690, “CEP signaling coordinates plant immunity with nitrogen status” (Nature Communications, 2024)
Non-standard residues stand in square brackets, D forms with d. No end group written: not given here. Hyp = O=C(O)[C@@H]1C[C@@H](O)CN1

T1: CEP RECEPTOR 2 ectodomain (CEPR2^ECD) (Arabidopsis thaliana, UniProt Q9C7T7 32-620)
T1 construct: CEPR2, Arabidopsis thaliana, ectodomain, residues 32 to 620; Secreted with a 30 K signal peptide from the modified pFastBAC vector; a TEV site stood before the StrepII-9xHis tag, so residues of the site may be left after cleavage; source: Trichoplusia ni Tnao38 cells, secreted, purified (Ni2+, Strep-Tactin, TEV, SEC); not shown: StrepII, C-terminal, cleaved; His9, C-terminal, cleaved
T1 sequence (looked up): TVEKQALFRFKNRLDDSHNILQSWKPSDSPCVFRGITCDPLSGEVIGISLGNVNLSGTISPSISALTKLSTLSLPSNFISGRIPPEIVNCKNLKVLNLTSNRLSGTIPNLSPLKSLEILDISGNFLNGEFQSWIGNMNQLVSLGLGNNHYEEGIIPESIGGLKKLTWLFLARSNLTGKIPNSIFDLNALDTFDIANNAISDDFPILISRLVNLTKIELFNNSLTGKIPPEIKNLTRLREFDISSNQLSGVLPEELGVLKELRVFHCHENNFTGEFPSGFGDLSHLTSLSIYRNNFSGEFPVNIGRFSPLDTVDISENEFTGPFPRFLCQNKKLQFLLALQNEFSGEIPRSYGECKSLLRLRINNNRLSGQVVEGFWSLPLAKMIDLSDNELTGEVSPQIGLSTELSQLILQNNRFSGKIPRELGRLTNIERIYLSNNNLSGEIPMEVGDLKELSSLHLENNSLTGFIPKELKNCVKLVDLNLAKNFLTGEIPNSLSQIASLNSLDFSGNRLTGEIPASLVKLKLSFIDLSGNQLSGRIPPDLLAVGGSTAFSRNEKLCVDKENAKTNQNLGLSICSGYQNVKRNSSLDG

T2: RECEPTOR-LIKE KINASE 7 ectodomain (RLK7^ECD) (Arabidopsis thaliana, UniProt F4I2N7 29-608)
T2 construct: RLK7, Arabidopsis thaliana, ectodomain, residues 29 to 608; Secreted with a 30 K signal peptide from the modified pFastBAC vector; a TEV site stood before the StrepII-9xHis tag, so residues of the site may be left after cleavage; source: Trichoplusia ni Tnao38 cells, secreted, purified (Ni2+, Strep-Tactin, TEV, SEC); not shown: StrepII, C-terminal, cleaved; His9, C-terminal, cleaved
T2 sequence (looked up): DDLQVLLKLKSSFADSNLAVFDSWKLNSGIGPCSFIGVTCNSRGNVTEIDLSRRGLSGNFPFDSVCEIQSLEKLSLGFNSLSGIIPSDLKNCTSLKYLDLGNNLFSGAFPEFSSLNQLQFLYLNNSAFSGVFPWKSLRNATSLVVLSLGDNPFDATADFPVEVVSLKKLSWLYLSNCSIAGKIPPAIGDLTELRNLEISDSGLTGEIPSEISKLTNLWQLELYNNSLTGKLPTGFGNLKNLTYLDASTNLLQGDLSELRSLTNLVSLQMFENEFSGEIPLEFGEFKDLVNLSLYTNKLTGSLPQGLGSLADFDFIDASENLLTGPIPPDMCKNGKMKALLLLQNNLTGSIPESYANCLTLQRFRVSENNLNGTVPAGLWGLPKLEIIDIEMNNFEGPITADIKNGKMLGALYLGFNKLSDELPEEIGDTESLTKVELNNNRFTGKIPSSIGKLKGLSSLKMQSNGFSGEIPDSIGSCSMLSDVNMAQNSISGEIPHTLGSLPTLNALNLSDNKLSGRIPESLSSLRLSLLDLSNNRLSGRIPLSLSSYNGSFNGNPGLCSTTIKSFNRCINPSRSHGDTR

B1: C-… ENCODED PEPTIDE 1 (CEP1) (peptide, UniProt Q8L8Y3 72-86, looked up)
peptide: DFRPTNPGNSPGVGH
notes: CEP1 peptide, the mature CEP domain cut from the CEP1 precursor, Arabidopsis thaliana; source: synthetic peptide (Pepmic, at least 90% purity)
B2: C-… ENCODED PEPTIDE 4 (CEP4), 16mer (peptide)
peptide: DAFR[Hyp]THQG[Hyp]SQGIGH
notes: CEP4 peptide domain of the CEP4 precursor, Arabidopsis thaliana (AT2G35612); 16mer with N-terminal D and C-terminal H; a 15mer without the N-terminal D is reported only for calcium influx; source: synthetic peptide (Pepmic, at least 90% purity)

Assays:
[1] = tested on: cytosolic calcium concentrations ([Ca^2+]cyt), Col-0^AEQ seedlings; experiment: Calcium influx assay (aequorin seedlings); assay type: in vivo, Arabidopsis thaliana; conditions: wild type, 30 min
Experimental: Apoaequorin-expressing liquid-grown eight-day-old seedlings were transferred individually to a 96-well plate containing 100 µl of 5 µM coelenterazine-h (PJK Biotech, Germany) and incubated in the dark overnight. Luminescence was measured using a plate reader (Luminoskan Ascent 2.1, Thermo Fisher Scientific, USA). Background luminescence was recorded by scanning each well 12 times at 10 s intervals, before adding a 25 µl elicitor solution to the indicated final concentration. Luminescence was recorded for 30 min at the same interval. The remaining aequorin was discharged using 2 M CaCl2, 20% ethanol. The values for cytosolic Ca^2+ concentrations ([Ca^2+]cyt) were calculated as luminescence counts per second relative to total luminescence counts remaining (L/Lmax).

[2] = molecular target: T1, CEP RECEPTOR 2 ectodomain (CEPR2^ECD); experiment: ITC; 300 μM peptide in the syringe injected into 30 μM receptor ectodomain in the cell; 25 °C; 20 mM citrate pH 5.0, 150 mM NaCl (SEC buffer); N fitted to 1; duplicates; conditions: both partners purified
[3] = molecular target: T2, RECEPTOR-LIKE KINASE 7 ectodomain …; experiment: as above; conditions: both partners purified

| Molecule | calcium influx [1] | Kd [2] [µM] | Kd [3] [µM] |
| --- | --- | --- | --- |
| AFR[Hyp]THQG[Hyp]SQGIGH [CEP4-15mer, 15mer peptide lacking the N-terminal D residue] | triggered a dose-dependent calcium influx with no significant differences to the response elicited by the 16mer peptide |  |  |
| B1 |  | 9.3 |  |
| RLASG[Hyp]SPRGRGH [PAMP-INDUCED PEPTIDE 1 (PIP1)] |  |  | 0.5 |
| B2 |  | 15.7 | 9 |
